The source of these data is PMC5745793 (2017).

Where two headings read alike, the source gives them in different places.

As usually defined, the Kd is the equilibrium constant for the complex coming apart.

Assay [1] has as its target CCR3 (Homo sapiens) (UniProt P51677). The conditions noted are these: cited from earlier work.
Assay [2] shares this target. The conditions noted are these: cited from earlier work. The source holds these as a separate data set.
Another assay concerns the target T1, CCR3 (Homo sapiens, UniProt P51677).
T1 chain: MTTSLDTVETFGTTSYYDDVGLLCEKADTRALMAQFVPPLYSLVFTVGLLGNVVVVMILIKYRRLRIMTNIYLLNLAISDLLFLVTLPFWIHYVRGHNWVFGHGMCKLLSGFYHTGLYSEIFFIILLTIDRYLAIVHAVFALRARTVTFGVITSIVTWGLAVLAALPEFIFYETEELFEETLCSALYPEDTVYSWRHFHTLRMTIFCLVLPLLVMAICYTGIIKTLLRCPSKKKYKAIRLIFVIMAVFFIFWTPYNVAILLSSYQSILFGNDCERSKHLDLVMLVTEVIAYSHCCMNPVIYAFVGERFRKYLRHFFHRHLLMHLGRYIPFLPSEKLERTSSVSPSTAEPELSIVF
The assay is described as follows: QCM.

For CCL24 (from UniProt O00175), the Kd in the assay with CCR3 (Homo sapiens) [1] is 300 nM. Turning to CCL11 (from UniProt P51671), in the assay with CCR3 (Homo sapiens) [2], the Kd is 370 nM.

B1: CCL8 (protein)
chain: QPDSVSIPITCCFNVINRKIPIQRLESYTRITNIQCPKEAVIFKTKRGKEVCADPKERWVRDSMKHLDQIFQNLKP
Regarding B1, in the assay with CCR3, the Kd came out at 120 nM.
